Assay results reported in ChEMBL document CHEMBL1136535, “Unexpected inhibition of S-adenosyl-L-homocysteine hydrolase by a guanosine nucleoside” (Bioorg Med Chem Lett, 2003).

Key:
[1] = substrate: OC[C@H]1OC(n2cncc2-c2cc(O)ncn2)[C@H](O)[C@@H]1O; assay: (§1) Enzyme kinetic constant for S-adenosyl-L-homocysteine hydrolase
[2] = substrate: Nc1nc2c(ncn2[C@@H]2O[C@H](CO)[C@@H](O)[C@H]2O)c(=O)[nH]1; assay: as §1
[3] = substrate: Nc1cc(-c2cncn2C2O[C@H](CO)[C@@H](O)[C@H]2O)ncn1; assay: as §1
[4] = substrate: O=c1[nH]cnc2c1ncn2[C@@H]1O[C@H](CO)[C@@H](O)[C@H]1O; assay: as §1
[5] = substrate: Nc1ncnc2c1ncn2[C@@H]1O[C@H](CO)[C@@H](O)[C@H]1O; assay: as §1
[6] = substrate: Nc1nc(O)cc(-c2cncn2C2O[C@H](CO)[C@@H](O)[C@H]2O)n1; assay: Enzyme kinetic constant for S-adenosyl-L-homocysteine hydrolase; Not a substrate
[7] = substrate: Nc1nc(O)cc(-c2cncn2C2O[C@H](CO)[C@@H](O)[C@H]2O)n1; assay: Enzyme kinetic constant for S-adenosyl-L-homocysteine hydrolase in hydrolysis direction

B1: Adenosylhomocysteinase (Homo sapiens), P23526 (protein)
chain: MSDKLPYKVADIGLAAWGRKALDIAENEMPGLMRMRERYSASKPLKGARIAGCLHMTVETAVLIETLVTLGAEVQWSSCNIFSTQDHAAAAIAKAGIPVYAWKGETDEEYLWCIEQTLYFKDGPLNMILDDGGDLTNLIHTKYPQLLPGIRGISEETTTGVHNLYKMMANGILKVPAINVNDSVTKSKFDNLYGCRESLIDGIKRATDVMIAGKVAVVAGYGDVGKGCAQALRGFGARVIITEIDPINALQAAMEGYEVTTMDEACQEGNIFVTTTGCIDIILGRHFEQMKDDAIVCNIGHFDVEIDVKWLNENAVEKVNIKPQVDRYRLKNGRRIILLAEGRLVNLGCAMGHPSFVMSNSFTNQVMAQIELWTHPDKYPVGVHFLPKKLDEAVAEAHLGKLNVKLTKLTEKQAQYLGMSCDGPFKPDHYRY
Km [1]: 421 µM | Km [2]: 844 µM | Km [3]: 54.4 µM | Km [4]: 2.5 µM | Km [5]: 0.82 µM | Km [6]: Not a substrate | Km [7]: 6.6 µM
